Measurements from patent publication US20210254073A1.

Legend:
[1] = molecular target: human Heat Shock Factor 1 (HSF1) tagged with GFP (Homo sapiens; Aequorea victoria) (UniProt Q00613); assay: AptA-MS: GFP-aptamer pull-down of HSF1-GFP from HCT116 lysate, mass spectrometry, SAINT probability score of interaction
[2] = molecular target: human Heat Shock Factor 1 (HSF1) tagged with GFP (Homo sapiens; Aequorea victoria) (UniProt Q00613); assay: AptA-MS of HSF1-GFP from non-heat-shocked HCT116 cells, SAINT probability score of interaction
[3] = molecular target: human Heat Shock Factor 1 (HSF1) tagged with GFP (Homo sapiens; Aequorea victoria) (UniProt Q00613); assay: AptA-MS of HSF1-GFP from heat-shocked HCT116 cells, SAINT probability score of interaction

Sequence of UniProt Q00613 (Q00613 whole entry): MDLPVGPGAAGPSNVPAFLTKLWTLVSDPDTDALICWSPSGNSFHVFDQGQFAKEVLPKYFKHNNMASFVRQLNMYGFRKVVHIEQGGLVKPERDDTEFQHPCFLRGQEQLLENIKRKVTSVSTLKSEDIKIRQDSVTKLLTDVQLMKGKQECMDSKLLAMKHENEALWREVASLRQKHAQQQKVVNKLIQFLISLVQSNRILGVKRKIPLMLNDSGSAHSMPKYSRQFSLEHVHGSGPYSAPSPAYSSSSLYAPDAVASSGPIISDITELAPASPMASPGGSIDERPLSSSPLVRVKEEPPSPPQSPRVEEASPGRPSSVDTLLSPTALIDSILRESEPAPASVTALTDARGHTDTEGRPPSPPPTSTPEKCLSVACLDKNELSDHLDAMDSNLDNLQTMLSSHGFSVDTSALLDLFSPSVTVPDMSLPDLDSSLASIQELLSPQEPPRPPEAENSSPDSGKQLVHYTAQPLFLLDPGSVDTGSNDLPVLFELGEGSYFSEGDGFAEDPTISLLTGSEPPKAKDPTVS

For “Elongation Factor 1-alpha 1 (from UniProt P68104 2-462)”, the SAINT score [1] was 0.69.

Work on “Elongation Factor 1-alpha 2 (from UniProt Q05639 2-463)” yielded an SAINT score [1] of 0.66.

HSF2 (from UniProt Q03933 1-536) gave an SAINT score [2] of 0.78.

In the case of “Thymidylate Kinase (from UniProt P23919 2-212) (enzyme)”, the SAINT score [3] is reported as 0.98.

In the case of “translation elongation factor HBS1 (from UniProt Q9Y450 1-684)”, the SAINT score [3] is reported as 0.92.
